# Test system: MS2 coat protein
# Experiment: apparent KD of MS2 coat protein; designed switch direction (-1 OFF switch, 1 ON switch): -1; higher = weaker reporter binding
# Procedure, shortened: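 SNAP-549-labelled MS2 coat protein was titrated, doubling from 0.7 or 1.5 nM to 3 µM, over designed RNA switches transcribed on Illumina chips by stalled E. coli RNA polymerase. Runs were done without input, with 200 uM small-molecule ligand, or with an oligonucleotide input. Apparent KD is the per-design median over clusters of curve-fitted normalised fluorescence.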
# [1] = input ligand: microRNA oligo, concentration not stated
# [2] = Eterna round: R95, input ligand: FMN 200 uM
# [3] = Eterna round: R95, input ligand: microRNA oligo, concentration not stated
# [4] = Eterna round: R95, input ligand: none
Sequence,apparent KD of MS2 coat protein (input ligand: FMN 200 uM) [nM],apparent KD of MS2 coat protein (input ligand: none) [nM],apparent KD of MS2 coat protein [1] [nM],apparent KD of MS2 coat protein [2] [nM],apparent KD of MS2 coat protein [3] [nM],apparent KD of MS2 coat protein [4] [nM]
"GUCCCACAUGAGGAUCACCCAUGUGAGGAUAUGGUUUCGCUGGCCGUAGCCAGUGGAACCAGAAGGCGCGUGAU [Mat - Exclusion 1 - JL Mod - D17] (Eterna round: R97, puzzle: Exclusion 1)",75,74.7,,,,
"AUGUGAUUGGCUCUGAGACAUGAGGAUCACCCAUGUGGAGCGCAGGAUAUCCGAACCGUGAAGGCGGAGAAGGGCGUCGUGGUA [Zasorequer] (Eterna round: R96, puzzle: Exclusion NG 3)",39.6,26,20.5,,,
"UUUUACUCAGGAUAUACAUGAGGAUCACCCAUGUAUAUUGAAGAUAAUACAUGGGAAUGUAGAAGGGAGCUCAU [Omei Ex3 Pseudoloop 18] (Eterna round: R97, puzzle: Exclusion 3)",190,179,,,,
"UGAGUGGUGCGAGGAUAUACAUGAGGAUCACCCAUGUAAACGUGUGAGGCUUUGCCUCACACGAUGUAGAAGGCGCACUACUCU [Mat - Exclusion NG 2 - Mod of JL - D13] (Eterna round: R96, puzzle: Exclusion NG 2)",15.6,13.6,9.36,,,
"AGUGUGAGGCAGGAUAUGCUAUAUGUACGUAAUGCAGAAGGGUCUACAUGAGGAUCACCCAUGUGUGCGGUUGA [Ex6 #8] (Eterna round: R97, puzzle: Exclusion 6)",309,289,,,,
"ACAUUCUGAGGAUAUGUGCGCACUGACAUGAGGAUCACCCAUGUCCGAAUGUCCGAGACGACAGAAGGCAGUGAAU [Eternabot (L2) Solution 72] (Eterna round: R97, puzzle: Exclusion 5)",355,101,,,,
GGUUGGCGAGGAUAUACAUGAGGAUCACCCAUGUGCGAGAAAAAAGUGAGGAAGAAAAGUAGAAGGCGCUGACG [salish99_ex3_r3_018] (puzzle: Exclusion 3),,,,238,49.5,58.2
GCUGCGCGAGGAUAUGCGGUUUGUGCUUUGGGCCCUGGCGUACAUGAGGAUCACCCAUGUAGAAGGCGUGUGGG [Apr-15 SS2-51] (puzzle: Exclusion 2),,,,,32.8,
"ACAUGAGGAUCACCCAUGUUAUGUUGGGUACUAAAUUAUUCGUAGGAUAUCGAAGCUAGUUUGUGCGAGAAGGACGCAUUUUUU [JR_ExcNG3_Sub058] (Eterna round: R96, puzzle: Exclusion NG 3)",147,201,176,,,
"GUCAGCUCGUGAGGAUAUACAUGAGGAUCACCCAUGUGGUCAAUAGCAGCUUCGGCUGCAAUAAUGUAGAAGGCACGAGCUGAC [ENG2/8-D] (Eterna round: R96, puzzle: Exclusion NG 2)",57.4,208,1030,,,
"GCUGCAAGAGGAUAUACAUGAGGAUCACCCAUGUGAAAUUAUAGUGAGGAAAUGAAAAGUAGAAGGCUUGUAGA [Mod of Mat 15 - Jieux - Exclusion 3] (Eterna round: R97, puzzle: Exclusion 3)",86.6,38.1,,,,
"UAUUAGCAAGUAAGAUCCCACAUGAGGAUCACCCAUGUGCUCGUCAUAUCAGGUACGGAGCGGAAACUCACGGUACG [Sensor-V1 #87] (Eterna round: R97, puzzle: Sensor, turn-off variant 1)",209,351,,,,
"CCUUAGGGAGGAUAUACAUGAGGAUCACCCAUGUACCGCGGCGCGUUCACACGGGUGGGUAGAAGGCCCUCACU [Colors] (Eterna round: R97, puzzle: Exclusion 3)",463,540,,,,
"UUUUGUCGUGACAUGGGUGACAUGAGGAUCACCCAUGUUACAAGCUUGUUGCUCGUCUUAUAAUUAACCCAUGUCAU [LRO Sensor-off var1-18 mod of Stov1-13-A1 by Brourd] (Eterna round: R97, puzzle: Sensor, turn-off variant 1)",44.7,49.1,,,,
GACUGCUGAGGAUAUACAUGAGGAUCACCCAUGUGCUUCAGUAUCGAAAGAUACAUUGGUAGAAGGUAGUAGUC [LRO-Excl3-07] (puzzle: Exclusion 3),,,,,11.1,
"AGUCAGUCAGGAUAUCAAAUCCGUGGACCUUACGAUGCGGCUGAGAAGGGACAUGAGGAUCACCCAUGUUGGGU [Eternabot (L2) Solution 27] (Eterna round: R97, puzzle: Exclusion 4)",60.8,66.5,,,,
CUUUUGUGAGGAUAUCAGUAGUAAAUAAAUAAAAUUACUAUUGAGAAGGCACAUGAGGAUCACCCAUGUUCCUC [salish99_ex3_r3_088] (puzzle: Exclusion 4),,,,,33.9,

Sequence,apparent KD of MS2 coat protein (input ligand: FMN 200 uM) [nM],apparent KD of MS2 coat protein (input ligand: none) [nM],apparent KD of MS2 coat protein [1] [nM],apparent KD of MS2 coat protein [2] [nM],apparent KD of MS2 coat protein [3] [nM],apparent KD of MS2 coat protein [4] [nM]
CUGGUCCGAGGAUAUAUGAUGUGAAACAUGAGGAUCACCCAUGUAAUAUUAUGGAUGAAAAUAGAAGGCGGACUAG [Mat - Exclusion 5 - JL mod - D37] (puzzle: Exclusion 5),,,,52.6,66.1,62.7
"CCCUCACAUGAGGAUCACCCAUGUUAGGAUAUGGGAGGUACCUGCGUGAGCGCACCACCCAGAAGGGACCAGGC [Eternabot (L2) Solution 4] (Eterna round: R97, puzzle: Exclusion 1)",130,159,,,,
"AAUACCGGUCUGCCUAAAGACAUGAGGAUCACCCAUGUCUGAUUCUCAACAGGCCUUUUGCUUCUCUUAACUACACA [Vetilage] (puzzle: Sensor v3, turn-off variant 1)",,,,13.9,23.1,12.6
"GGUACUAACACGAGAGUGUUAGUACUAUAAGCUUGUGUUACAUGAGGAUCACCCAUGUCCUCAUAGGCUCGUCUUAU [Mat - Sensor v3 - Turn-off var 2 - D80] (puzzle: Sensor v3, turn-off variant 2)",,,,209,25.8,231
"GUACUGAAGCUUUGCUUUAGUCGUACAUGAGGAUCACCCAUGUAGGAUAUGGUAGGCAUAGCUUACUAGAAGGAUAGAGUGAUC [Mat - Exclusion NG 3 - Mod of JL - D64] (Eterna round: R96, puzzle: Exclusion NG 3)",112,81.3,86,,,
GCAGGAUAAGUGAGGAUAUACCUAUGGAUACAUAGGUAGAAGGUACAUGAGGAUCACCCAUGUUCCUUACCUGC [Fiskers BMX 4 - 65] (puzzle: Brourd's mod of Exclusion 4),,,,,11.7,
"GCCUUAUCGGUCAGGAUAUACACCCGUCACUUGUUGUAGAAGGGACAUGAGGAUCACCCAUGUACAUUACAUUG [alecazam37] (Eterna round: R97, puzzle: Brourd's mod of Exclusion 4)",31.3,26,,,,
"AAGUACCGUCACGAAAGUGAUGGUACAACAAGCAAAUGUACAUGAGGAUCACCCAUGUCCUCAAUUGCUCGUCUUAU [Sensor 3 - 57] (puzzle: Sensor v3, turn-off variant 2)",,,,88.2,176,92.8
"UAUUGGCUAGGAUAUCCGGCUGGCGACAUGAGGAUCACCCAUGUGGACUCUGGUUGUCUUGGAGAAGGAGCAUGCG [EX5 B.19] (Eterna round: R97, puzzle: Exclusion 5)",206,138,,,,
"ACCUCACAUGAGGAUCACCCAUGUCAGGAUAUCUUUUAAAACACCAAUCGUGUCGCUGAGAGAAGGGACAUUAA [EX1 #23] (Eterna round: R97, puzzle: Exclusion 1)",20.5,16,,,,
"UGUACUAACACGGAAGUGUUAGUACUAUAAGCUUGUGUUACAUGAGGAUCACCCAUGUCCUCAUAAGCUCGUCUUAU [Mat - Sensor v3 - Turn-off var 2 - D74] (puzzle: Sensor v3, turn-off variant 2)",,,,157,53.6,172
"GGUGGUAUUGUUAGGAUAUGGCAUGCCCGAGGCGUCUAGAAGGGACAUGAGGAUCACCCAUGUCUAGAAUUAAU [Eternabot (L2) Solution 53] (Eterna round: R97, puzzle: Brourd's mod of Exclusion 4)",41.2,45.5,,,,
UUUAGUUCAGGAUAUGUAGAUUUUAACAUGAGGAUCACCCAUGUAGAUCCUGAAUUAACUACAGAAGGGAACAUUC [Exclusion 5: 2:c] (puzzle: Exclusion 5),,,,,20.9,
AAGAAACAUGAGGAUCACCCAUGUGAGGAUAUGAUAAAGAAAAGAAAAGAAAGAAGAAUCAGAAGGCACAAAGG [salish99-ex1_r3_031] (puzzle: Exclusion 1),,,,129,51,54
"CAAUAGGGAGGAUAUCCAAUAUAUGACAUGAGGAUCACCCAUGUUUCCACUCGUACCUCCGGAGAAGGCCCAUAAG [Ex5 #6] (Eterna round: R97, puzzle: Exclusion 5)",21.3,24.1,,,,
"GGAUCGAAUGUGAGGAUAUACCUAUGGAUACAUAGGUAGAAGGCACAUGAGGAUCACCCAUGUCCUAACGGUCC [Eli bmx4 4.14] (Eterna round: R97, puzzle: Brourd's mod of Exclusion 4)",479,347,,,,
"UAUUACAAGCGAGAUCCUAACAUGAGGAUCACCCAUGUGCUCGUCUCAUUUUGGACUAUCACGAAAGUGAUAGUCCU [Level Boss var2-02] (puzzle: Sensor v3, turn-off variant 1)",,,,19.9,237,17.2

# From the supplement of paper PMC9170038
